{
  "source": "paper PMC3964825",
  "about": "(Biochemistry, 2013)",
  "key": {"native MS": {"biological_target": "the molecule itself", "assay": "native MS"}, "native gel or EMSA": {"biological_target": "the molecule itself", "assay": "native gel or EMSA"}},
  "note": "“And” between values parts separate entries of the source, which are not always exact repeats. Equal entries are not always repeated.",
  "data": [
    {"protein": "EZH2-EED heterodimer (FLAG-EZH2–6×HIS-EED) (complex) chain 1: not shown chain 2: not shown", "values": [
      {"measurement": "stoichiometry N", "setting": "native MS", "result": "2 and 3"},
      {"measurement": "stoichiometry N", "setting": "native gel or EMSA", "result": "≤ 4"}
    ]}
  ]
}
